The target in experiment [1] is T1, gD epitope-tagged rat LgR5 expressed on stably transfected 293 cells (rat, UniProt D4AC13 22-907).
T1 construct: also called gD-tagged rat LgR5
T1 sequence: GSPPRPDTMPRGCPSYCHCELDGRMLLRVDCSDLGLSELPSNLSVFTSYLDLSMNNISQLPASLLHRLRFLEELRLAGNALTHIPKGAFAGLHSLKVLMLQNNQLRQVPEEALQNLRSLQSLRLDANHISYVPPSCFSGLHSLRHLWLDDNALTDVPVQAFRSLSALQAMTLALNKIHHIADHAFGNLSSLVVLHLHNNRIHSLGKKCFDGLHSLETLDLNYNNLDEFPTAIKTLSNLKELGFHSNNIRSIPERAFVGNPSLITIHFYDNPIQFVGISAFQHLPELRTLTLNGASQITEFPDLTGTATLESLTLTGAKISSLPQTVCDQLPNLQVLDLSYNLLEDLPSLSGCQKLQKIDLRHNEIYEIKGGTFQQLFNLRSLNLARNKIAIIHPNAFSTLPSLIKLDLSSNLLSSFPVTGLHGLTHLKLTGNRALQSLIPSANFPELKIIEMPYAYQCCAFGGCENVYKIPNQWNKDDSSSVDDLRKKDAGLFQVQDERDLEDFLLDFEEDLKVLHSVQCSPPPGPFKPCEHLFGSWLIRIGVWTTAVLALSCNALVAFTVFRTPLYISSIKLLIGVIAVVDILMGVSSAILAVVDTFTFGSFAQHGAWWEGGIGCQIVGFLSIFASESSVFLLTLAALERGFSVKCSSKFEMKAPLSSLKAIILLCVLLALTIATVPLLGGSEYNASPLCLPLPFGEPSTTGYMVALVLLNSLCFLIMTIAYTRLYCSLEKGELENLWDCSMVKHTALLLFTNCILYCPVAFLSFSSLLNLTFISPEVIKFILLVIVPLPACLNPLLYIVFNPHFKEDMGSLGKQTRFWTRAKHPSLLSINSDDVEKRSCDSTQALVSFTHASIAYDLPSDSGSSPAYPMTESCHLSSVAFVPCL
As to the kind of experiment: FACS on stably transfected 293 cells, detected with R-Phycoerythrin goat anti-human antibody. On the procedure:
(§1) Monoclonal antibodies were tested to determine if they cross-react with LgR5 from species other than human. […] Residues that are identical among all four species are indicated by asterisks (*). […] YW353 antibody binds human and cynomolgus monkey LgR5, but not rat or mouse LgR5. Ch8E11 and hu8E11.v2 antibodies bind all four species of LgR5, although binding to rat LgR5 is not as strong as binding to human, cynomolgus monkey, or mouse LgR5. 2H6 antibody binds to human and mouse LgR5, and was not tested for binding to cynomolgus monkey or rat LgR5.

The target of experiment [2] is T2, gD epitope-tagged mouse LgR5 expressed on stably transfected 293 cells (mouse, UniProt Q9Z1P4 22-907).
T2 construct: also called gD-tagged mouse LgR5
T2 sequence: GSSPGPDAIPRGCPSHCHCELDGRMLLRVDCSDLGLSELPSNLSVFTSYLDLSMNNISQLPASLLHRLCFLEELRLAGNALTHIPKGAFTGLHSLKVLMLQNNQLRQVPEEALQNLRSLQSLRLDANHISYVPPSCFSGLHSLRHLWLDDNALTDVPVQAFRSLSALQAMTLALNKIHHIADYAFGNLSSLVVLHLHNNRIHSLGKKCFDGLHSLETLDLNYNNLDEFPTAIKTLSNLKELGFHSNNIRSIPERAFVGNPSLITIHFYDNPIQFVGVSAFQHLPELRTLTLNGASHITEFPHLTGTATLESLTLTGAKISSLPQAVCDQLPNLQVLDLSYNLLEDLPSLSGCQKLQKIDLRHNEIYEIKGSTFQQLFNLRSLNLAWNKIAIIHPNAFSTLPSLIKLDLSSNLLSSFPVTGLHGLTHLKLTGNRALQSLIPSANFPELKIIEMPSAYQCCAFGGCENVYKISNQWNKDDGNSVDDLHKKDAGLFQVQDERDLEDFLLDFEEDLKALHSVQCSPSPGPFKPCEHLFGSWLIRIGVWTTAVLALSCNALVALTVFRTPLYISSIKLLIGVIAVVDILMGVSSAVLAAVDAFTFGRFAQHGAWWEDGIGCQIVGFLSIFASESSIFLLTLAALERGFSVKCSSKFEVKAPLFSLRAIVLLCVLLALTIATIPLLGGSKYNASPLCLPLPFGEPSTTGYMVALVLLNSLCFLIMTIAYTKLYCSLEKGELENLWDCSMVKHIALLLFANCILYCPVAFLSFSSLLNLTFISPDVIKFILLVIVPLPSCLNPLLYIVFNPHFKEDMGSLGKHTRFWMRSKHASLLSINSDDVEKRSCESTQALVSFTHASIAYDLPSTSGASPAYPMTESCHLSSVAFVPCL
Described as above. On the procedure: as §1

Experiment [3] addresses T3, gD epitope-tagged LgR5 22-123 (amino acids 22-123 of SEQ ID NO: 67) with a C-terminal GPI anchor on … (human, UniProt O75473 22-123, C-terminal GPI anchor).
T3 sequence: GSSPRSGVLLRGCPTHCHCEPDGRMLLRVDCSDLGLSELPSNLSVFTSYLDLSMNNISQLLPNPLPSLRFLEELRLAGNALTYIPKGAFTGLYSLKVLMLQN
Description: FACS on transiently transfected 293 cells.

Experiment [4] concerns the target T1, gD epitope-tagged rat LgR5 expressed on …. As to the kind of experiment: FACS on 293 cells stably transfected with gD epitope-tagged LgR5, 10 ug/ml antibody, R-Phycoerythrin goat anti-human detection. How it is done: as §1

B1: human antibody YW353 (antibody, human IgG1, kappa, V domains shown)
VH: EVQLVESGGGLVQPGGSLRLSCAASGFTFTSYSISWVRQAPGKGLEWVAEIYPPGGYTDYADSVKGRFTISADTSKNTAYLQMNSLRAEDTAVYYCAKARLFFDYWGQGTLVTVSS
VL: DIQMTQSPSSLSASVGDRVTITCRASQDVSTAVAWYQQKPGKAPKLLIYSASFLYSGVPSRFSGSGSGTDFTLTISSLQPEDFATYYCQQSYTTPPTFGQGTKVEIKR
notes: also called huYW353
For the molecule B1, the binding result in experiment [1] and in experiment [2] was “no binding (tested: 10 µg/ml)” in each case.

B2: humanized monoclonal antibody 8E11.v2 (antibody, human IgG1, kappa, V domains shown)
VH: EVQLVQSGAEVKKPGASVKVSCKASGYTFSAYWIEWVRQAPGQGLEWIGEILPGSDSTDYNEKFKVRATFTSDTSTSTVYLELSSLRSEDTAVYYCARGGHYGSLDYWGQGTLVTVSS
VL: DIVMTQSPDSLAVSLGERATINCRASESVDNYGNSFMHWYQQKPGQPPKLLIYLASNLESGVPDRFSGSGSGTDFTLTISSLQAEDVAVYYCQQNYEDPFTFGQGTKVEIKR
notes: It was assessed as an IgG; also called hu8E11.v2; hu8E11v2
As for B2, in experiment [3], the binding result is “no binding (tested: 10 µg/ml)”.

B3: chimeric monoclonal antibody 8E11 (antibody, human IgG1, V domains shown)
VH: QVQLQQSGTELMKPGASVKISCKATGYTFSAYWIEWIKQRPGHGLEWIGEILPGSDSTDYNEKFKVKATFSSDTSSNTVYIQLNSLTYEDSAVYYCARGGHYGSLDYWGQGTTLKVSS
VL: NIVLTQSPASLAVSLGQRATISCRASESVDNYGNSFMHWYQQKPGQPPKLLIYLASNLESGVPARFSGSGSRTDFTLTIDPVEADDAATYYCQQNYEDPFTFGSGTKVEIKR
notes: also called ch8E11; chimeric 8E11
Consider B3, for which the binding result in experiment [3] is reported as “no binding (tested: 10 µg/ml)”; in experiment [4] it was “binds”.
